Common to all, as to format: cell-based, human
The test system of one series is DUX4 protein. Kind of series: Western blot of V5-tagged DUX4 protein in co-transfected HEK293 cells. Particulars: CMV.DUX4-FL/CMV.eGFP, HEK293, molar ratio 1 to 3, eGFP normalizer, relative to U6-milacZ, N = 3-8. The procedure:
Western Blots. […] 50 mM Tris (pH 7.5-8.0), 150 mM NaCl, 0.1% (v/v) SDS, 0.5% (v/v) deoxycholate, 1% (v/v) triton X-100 (Fisher Scientific) and 1 tablet of protease inhibitor (ThermoFisher Scientific) per 10 mL of buffer. The total protein extract was quantified using the DC Protein Assay (Bio-Rad). Twenty microgram samples were separated on 12% SDS-PAGE, transferred to nitrocellulose membrane, using the wet transfer system, and incubated with the following antibodies: mouse monoclonal antibody to V5 (horseradish peroxidase [HRP]-coupled) [1:5,000 in 5% milk TBST buffer (150 mM NaCl, 50 mM Tris-HCl pH 7.4 and 0.1% Tween 20 (Fisher Scientific)), R961-25; Invitrogen); rabbit polyclonal eGFP antibody (1:50,000 in 3% BSA PBS, ab290; Abcam); mouse monoclonal β-actin antibodies (1:60,000; Sigma, St Louis, MO); overnight at 4° C. When using the eGFP antibody, membranes were blocked 30 mins with 3% BSA PBS prior to blotting. eGFP-probed blots were washed five times, 5 min each with 0.5% Tween 20 (Fisher Scientific) in TBST buffer, and then incubated with HRP-coupled goat anti-rabbit secondary antibody (1:250,000 in 3% BSA PBS, 115-035-144; Jackson ImmunoResearch) for 2 hours at room temperature. V5-probed blots were washed five times, 5 min each with 0.1% Tween 20 in TBST buffer. Following washes, blots were developed using Immobilon Western HRP substrate (Millipore) and exposed to film. DUX4.V5, and eGFP quantification was assessed using ImageJ.
On the technique in general: Immunoblotting shows a protein as a band on a membrane.

In series [1] the test system is mir-675-5p. Nature of the series: TaqMan QRT-PCR of mature mir-675-5p from transfected constructs in HEK293 cells. The following applies: HEK293, 24 h post-transfection; for mir-675-5p levels compared to U6.mir-675: 23 mer mature mir-675-5p. The text has this:
RNA Extraction. RNA from HEK293 cells was extracted for Northern blot assay and QPCR. The miRVANA miRNA isolation kit (ThermoFisher Scientific) was used according to manufacturer's directions to extract total RNA encompassing small RNAs, such as miRNAs. To extract RNA from C57BL/6 skeletal muscles, cryopreserved muscles were crushed under suboptimal temperatures using liquid nitrogen and using mortar and pestle. Crushed muscles were then lysed using […] of miRVANA miRNA isolation kit lysis buffer, a TissueLyser and 1.0 mm zirconia beads (Biospec). Muscle was homogenized at 30 Hz for 30 sec with 10 sec rest. This was repeated 3 times.
TaqMan Gene Expression Assay. QRT-PCR was carried out to quantify the expression of pri-mir-675, mir-675-5p and mi405 using TaqMan probes (ThermoFisher Scientific). Experiments were started by eliminating genomic DNA from the RNA preparations, and then cDNA was generated using the High-Capacity cDNA Reverse Transcription Kit (Applied Biosystems) following manufacturer's instructions. Within the same cDNA reaction, 1×RT random hexamer primers were used to generate the cDNA for RPL13A, used as a reference gene, and for pri-mir-675. To generate the cDNA for mir-675, the RT mir-675 reverse primer provided by ThermoFisher Scientific was used. For mi405, the mi405 qPCR protocol was done as it was previously described [Wallace et al., Mol. Ther. Methods Clin. Dev. 8: 121-30 (2018)]. To quantify mir-675 and mi405 levels, RNA was extracted using the total RNA protocol for the mirVana miRNA Isolation Kit (Ambion) from HEK293 cells. cDNA was generated using the High-Capacity cDNA Reverse Transcription Kit (Applied Biosystems) using a mix of random hexamer primers and specific reverse primer for pri-mir-675 and mir-675-5p. For mi405, 200 nM of the stem-loop forming primer (5′-[…]-3′) (SEQ ID NO: 144) was also used for the RT step. A custom TaqMan assay (Applied Biosystems) including 1.5 μM of Forward primer (5′-[…]-3′) (SEQ ID NO: 145), 0.7 μM of Reverse primer (5′-GTGCAGGGTCCGAGGT-3′) (SEQ ID NO: 146), and 0.2 μM of mi405 probe (5′-6FAM-ATACGACGTCCAGGAT-3′) (SEQ ID NO: 147) was then run using the CFX Connect Real Time system apparatus (Bio-Rad). RPL13A (Mm02526700_g1; Applied Biosystems) served as the reference gene. The TaqMan gene expression assay consisted of using the TaqMan Gene Expression Master mix and TaqMan probes purchased from ThermoFisher Scientific. 1× of probe was mixed with 1× of the TaqMan Gene Expression Master mix (ThermoFisher Scientific), and with 20 ng of cDNA. The mir-675- and mi405-specific primers and probes were designed to quantify only the mir-675-5p and mi405 mature sequence (see TaqMan Gene Expression Master mix protocol).

Series [2] relates to mir-675-5p. Kind of series: ddPCR of all mature mir-675-5p sequences (TaqMan Advanced miRNA cDNA synthesis) in HEK293 cells. The procedure:
Digital Droplet PCR (ddPCR). For mir-675 and mi405 constructs, RNA extraction was carried out as described for QPCR above. For cDNA synthesis, the TaqMan advanced cDNA synthesis kit (Thermo Fisher) was used and cDNA was prepared by following manufacturer's instructions. ddPCR was carried out using 1× ddPCR Supermix for probes (No dUTP) (Bio-Rad), 1× commercially available mir-675 advanced TaqMan probe, or a custom made mi405 advanced TaqMan probe (ThermoFisher) and 50 ng of cDNA. For DUX4 cDNA synthesis, the High-Capacity cDNA Reverse Transcription Kit (Applied Biosystems) was used according to manufacturer's instructions. Within the same cDNA reaction, 1×RT random hexamer primers and 25 pmoles of the Oligo(dT) primer were used to generate cDNA for DUX4 and DUX4-responsive biomarkers and for mouse Rpl13A, used as a reference gene. To quantify DUX4, the ddPCR reaction mixture (20 μL) contained 1× ddPCR Evagreen Supermix (Bio-Rad), 1 μM of forward and reverse DUX4 primers (Sharma et al., J Genet Syndr Gene Ther 2016 August; 7(4):303. doi: 10.4172/2157-7412.1000303. Epub 2016 Aug. 8), and 50 ng of cDNA. To quantify Rpl13A and DUX4-responsive biomarkers (Trim36 and Wfdc3), the 1× ddPCR Supermix for probes (No dUTP) and TaqMan specific probes were used for each of the genes. Droplets were generated using the Automatic Droplet generator QX200 AutoDG (Bio-Rad), the reactions were amplified in a C1000 Touch™ Thermal Cycler with 96-Deep Well Reaction Module (Bio-Rad). Cycling conditions were set up following the QX200 ddPCR Evagreen Supermix protocol. All assays are compatible with an annealing temperature of 58° C. Droplets were then read using the QX200 droplet reader (Bio-Rad). Finally, data were analyzed using the QuantaSoft analysis software (Bio-Rad). For quantification, each reaction of 20 μL was estimated to give at least 10,000 acceptable droplets.
In order to quantify the level of all these mature sequences, the TaqMan advanced miRNA cDNA synthesis method that uses universal reverse transcription (RT) chemistry to synthesize cDNA templates that can be quantified using the TaqMan Advanced miRNA probes was used. In this method, most of the processed mature miRNA sequences were quantified.

The subject of series [3] is mir-675-5p. Kind of series: Small-transcript northern blot of mir-675 processing in HEK293 cells. The following applies: HEK293; anti-mir-675-5p biotinylated probe. The text has this: Small-Transcript Northern Blots. […] (SEQ ID NO: 148)).

B1: U6.mir-675-2.1.1: mir-675 construct with modified 5' and 3' flanking sequences (nucleic acid)
DNA: TCTAGAGATCCGACGCCGCCATCTCTAGGCCCGCGCCGGCCCCCTCGCACAGACTTGTGGGAGAAGCTCGGCTACTCCCCTGCCCCGGTTAATTTGCATATAATATTTCCTAGTAACTATAGAGGCTTAATGTGCGATAAAAGACAGATAATCTGTTCTTTTTAATACTAGCTACATTTTACATGATAGGCTTGGATTTCTATAAGAGATACAAATACTAAATTATTATTTTAAAAAACAGCACAAAAGGAAACTCACCCTAACTGTAAAGTAATTGTGTGTTTTGAGACTATAAATATCCCTTGGAGAAAAGCCTTGTTTGCCCCAGGGTCTGGTGCGGAGAGGGCCCACAGTGGACTTGGTGACGCTGTATGCCCTCACCGCTCAGCCCCTGGGGATAACTCCTAATCACACTTTTTT
For B1, the figures for the “Average inhibition efficiency (%) of DUX4 protein levels” value in the series on DUX4 protein and in the series on DUX4 protein (listed as U6-mir-675-2.1.1) were 83±3% and 83 ± 3 (N = 3) %, respectively. Besides, in the series with mir-675-5p [1], the “mir-675-5p levels compared to U6.mir-675” value was determined as 282±34%. The “ratio of mir-675-5p/pri-mir-675 compared to U6.mir-675” value in the series on mir-675-5p [1] is 207±38%. Also, in the series with mir-675-5p [2], the “fold change of all mature mir-675-5p sequences compared to U6.mir-675” value was 213±51%. The “mature mir-675-5p bands on northern blot” value in the series with mir-675-5p [3] is given as “detectable mir-675 mature sequences”.

B2: U6.mir-675F2: U6 mir-675 construct with H1.mir-675-like flanks and cPPT/CTS sequence (nucleic acid)
DNA: TTTTAAAAGAAAAGGGGGGATTGGGGGGTACAGTGCAGGGGAAAGAATAGTAGACATAATAGCAACAGACATACAAACTAAAGAATTACAAAAACAAATTACAAAAATTCAAAATTTTTCTAGAGATCCGACGCCGCCATCTCTAGGCCCGCGCCGGCCCCCTCGCACAGACTTGTGGGAGAAGCTCGGCTACTCCCCTGCCCCGGTTAATTTGCATATAATATTTCCTAGTAACTATAGAGGCTTAATGTGCGATAAAAGACAGATAATCTGTTCTTTTTAATACTAGCTACATTTTACATGATAGGCTTGGATTTCTATAAGAGATACAAATACTAAATTATTATTTTAAAAAACAGCACAAAAGGAAACTCACCCTAACTGTAAAGTAATTGTGTGTTTTGAGACTATAAATATCCCTTGGAGAAAAGCCTTGTTTGCCCCAGGGTCTGGTGCGGAGAGGGCCCACAGTGGACTTGGTGACGCTGTATGCCCTCACCGCTCAGCCCCTGGGGAATTCTTCGATTCTGCTTTTTT
For the molecule B2, the “Average inhibition efficiency (%) of DUX4 protein levels” value in the series with DUX4 protein is reported as 79 ± 6 (N = 3) %. Also, in the series on mir-675-5p [1], the “mir-675-5p levels compared to U6.mir-675” value was 882±108% and the “ratio of mir-675-5p/pri-mir-675 compared to U6.mir-675” value is on record as 918±169%. The “fold change of all mature mir-675-5p sequences compared to U6.mir-675” value in the series with mir-675-5p [2] is reported as 181±34%. Moreover, the “mature mir-675-5p bands on northern blot” value in the series with mir-675-5p [3] was “detectable mir-675 mature sequences”.

Source of the values: US20240093191A1, “COMPOSITIONS AND METHODS FOR TREATING DISEASE ASSOCIATED WITH DUX4 OVEREXPRESSION” (RESEARCH INSTITUTE AT NATIONWIDE CHILDREN'S HOSPITAL, priority 2021, published 2024).
